The values that follow come from patent publication US20040132157A1.

Series [1] concerns the target recombinant human ADAM protein (metalloprotease region and disintegrin region expressed in Escherichia coli from plasmid pMDH) (human) (UniProt Q9UKQ2). Description: cell-based or functional assay.
The target in series [2] is T1, Nma-Pro-Lys-Pro-Leu-Ala-Nva-Trp-Lys(DNP)-NH2.
T1 chain: PKPLAXWK

Series [3] has as its target T2, MOCAc-Arg-Pro-Lys-Pro-Tyr-Ala-Nva-Trp-Met-Lys(DNP)-NH2.
T2 chain: RPKPYAXWMK

Regarding “N-CBZ-Pro-Leu-Gly-hydroxamate (Sigma C8537) (peptide)”, in series [1], the IC50 value (concentration of a test compound which 50% inhibits the protease activity) is 100 µM.

B1: recombinant human ADAM protein (metalloprotease region and disintegrin region expressed in Escherichia coli from plasmid pMDH) (protein)
chain: VQEHEKYIEYYLVLDNGEFKRYNENQDEIRKRVFEMANYVNMLYKKLNTHVALVGMEIWTDKDKIKITPNASFTLENFSKWRGSVLSRRKRHDIAQLITATELAGTTVGLAFMSTMCSPYSVGVVQDHSDNLLRVAGTMAHEMGHNFGMFHDDYSCKCPSTICVMDKALSFYIPTDFSSCSRLSYDKFFEDKLSNCLFNAPLPTDIISTPICGNQLVEMGEDCDCGTSEECTNICCDAKTCKIKATFQCALGECCEKCQFKKAGMVCRPAKDECDLPEMCNGKSGNCPDDRFQVNGF
Regarding B1, the “fluorescent intensity (excitation 340 nm, measuring 450 nm) after 2 hours at 37 C” value in series [2] was “the fluorescent intensity in the case of addition of the enzyme solution was 180”. The “fluorescent intensity (excitation 328 nm, 393 nm) after 22 hours at 37 C” value in series [3] is “the fluorescent intensity of 70 was shown when the protein was added”.
